Assay results taken from patent US20230357391A1 (EXELIXIS, published 2023).
Changes are numbered by the printed parent chain. Where “and” joins values, the source holds several entries; their conditions need not be identical. Equal entries are not always repeated. One block for each binder: values may come before it.

Tests used:
human CD47 on cells [1] = molecular target: T1, human CD47 on cells (human, UniProt Q08722 19-323); assay: flow cytometry, MDA-MB-231 cells
T1 construct: also called surface CD47 of MDA-MB-231 cells; CD47 of JeKo-1 cells
Description: Cells were harvested at 70-90% confluence on the day of the assay. Cells were collected by centrifugation at 200xg for 5 minutes and media was removed. Cells were resuspended at 2×10⁶ cells per mL in cold PBS. An 8-point antibody dilution series (2x concentration) was prepared in PBS to cover the expected binding affinities of the antibodies being tested. […] 50 µL per well of cell suspension was added. Plates were placed at 4° C. for 45-60 minutes.
Cells were collected by centrifugation at 400xg for 7 minutes and secondary antibody was removed. Cells were resuspended in 50 µL per well of PBS and analyzed by flow cytometry. Binding curves were calculated using the mean fluorescence intensity (MFI) of the FITC fluorescence signal on the cells.

human CD47 on cells [2] = molecular target: T1, human CD47 on cells; assay: cell-based or functional assay
mouse CD47 = molecular target: T2, mouse CD47 (mouse, UniProt Q61735-2 19-158, limits assumed, biotinylated); assay: BLI (Octet), mouse CD47 on sensor; X = no mouse cross-reactivity
T2 construct: also called mCD47
T2 sequence (looked up): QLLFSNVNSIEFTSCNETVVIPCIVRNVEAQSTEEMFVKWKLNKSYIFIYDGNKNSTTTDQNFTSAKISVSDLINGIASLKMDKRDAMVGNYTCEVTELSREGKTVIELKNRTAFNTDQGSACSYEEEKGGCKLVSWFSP
Excerpt: Mouse CD47 was obtained from Acro Biosystems (Acro Cat. No. CD7-M82E4, Acro Cat. No. CD7-M522b) and biotinylated using standard protocols. The free biotin was removed by extensive dialysis against PBS. Biotinylated antigen (CD47) was immobilized on a streptavidin sensor. The cross-reactive antibodies were identified by the association to mouse CD47 using Octet.

EC50 (human CD47 on cells [1]): > 1000 nM
IC50 (human CD47 on cells [2]): 5.38 nM
B1: Antibody C40 (antibody, human IgG1, kappa, V domains shown)
VH: EVQLVESGGGLVQPGGSLRLSCAASGFTFSYYYIHWVRQAPGKGLEWVAWIDPYGHSTTYADSVKGRFTISADTSKNTAYLQMNSLRAEDTAVYYCARGGRGAMDYWGQGTLVTAST
VL: DIQMTQSPSSLSASVGDRVTITCRASQSVSSAVAWYQQKPGKAPKLLIYSASSLYSGVPSRFSGSRSGTDFTLTISSLQPEDFATYYCQQRYSSLLTFGQGTKVEIKR
notes: Full length IgG

EC50 (human CD47 on cells [1]): 200 to 1000 nM and 550 nM
IC50 (human CD47 on cells [2]): 140 nM
binding result (mouse CD47): no binding
B2: Antibody C59 (antibody, human IgG1, kappa, V domains shown)
VH: B1 VH with S30T, Y31S, W50Y, P53S, Y54K, G55H, H56G, S57T, T59Q, G102S
VL: B1 VL with Y92T, S93T
notes: Full length IgG
